From PMC7870652

How the values were obtained:
[1] = biological target: CDH23 EC1-5/EC3-5 single-bond fusion protein (asymmetric Fc heterodimer with one EC1-2 binding domain) (mouse) (UniProt Q99PF4); test: single-molecule force spectroscopy (optical tweezers); single-bond EC1-5/EC3-5 proteins, each on a DNA tether on a streptavidin bead in a dual-beam optical trap; 50 µM Ca2+, TBS buffer, room temperature; Bell-Evans fit of most-probable unbinding forces against loading rate, constants extrapolated to zero force
[2] = biological target: truncated CDH23 EC1-5 dimer fusion protein (two EC1-5 strands) (mouse); test: BLI; CDH23 biotinylated on its SNAPtag and immobilised on streptavidin-coated PEG-biotin aminopropylsilane sensors; 10–300 nM PCDH15 in solution; TBS-Tween + Ca^2+ buffer, 2 mM Ca^2+; traces of a drift sensor and of PCDH15 lacking EC1-2 subtracted; dissociation fitted with a single exponential; on-rates measured at 300 nM PCDH15 (effective on-rate); Octet Red384

| koff [1] | mean lifetime of the connection at zero force [2] | Substance |
| --- | --- | --- |
| 1.2 s⁻¹ |  | PCDH15 EC1-5/EC3-5 single-bond fusion protein (asymmetric Fc heterodimer with one EC1-2 binding domain) (from UniProt Q99PJ1-1 27-1943; Q99PJ1-1 27-1943) (Fc fusion) |
|  | 27.1 s | truncated PCDH15 EC1-5 dimer fusion protein (two EC1-5 strands) (Fc fusion) |
